B1: EhCaBP1 (calcium binding protein 1), recombinant (natural protein, E. histolytica, UniProt P38505 1-134, looked up)
chain: MAEALFKEIDVNGDGAVSYEEVKAFVSKKRAIKNEQLLQLIFKSIDADGNGEIDQNEFAKFYGSIQGQDLSDDKIGLKVLYKLMDVDGDGKLTKEEVTSFFKKHGIEKVAEQVMKADANGDGYITLEEFLEFSL

Legend:
[1] = target: T1, EhPHDK (PH domain containing protein kinase), full-length recombinant protein (E. histolytica, UniProt C4M4G9 1-433); assay: BLI
T1 sequence (looked up): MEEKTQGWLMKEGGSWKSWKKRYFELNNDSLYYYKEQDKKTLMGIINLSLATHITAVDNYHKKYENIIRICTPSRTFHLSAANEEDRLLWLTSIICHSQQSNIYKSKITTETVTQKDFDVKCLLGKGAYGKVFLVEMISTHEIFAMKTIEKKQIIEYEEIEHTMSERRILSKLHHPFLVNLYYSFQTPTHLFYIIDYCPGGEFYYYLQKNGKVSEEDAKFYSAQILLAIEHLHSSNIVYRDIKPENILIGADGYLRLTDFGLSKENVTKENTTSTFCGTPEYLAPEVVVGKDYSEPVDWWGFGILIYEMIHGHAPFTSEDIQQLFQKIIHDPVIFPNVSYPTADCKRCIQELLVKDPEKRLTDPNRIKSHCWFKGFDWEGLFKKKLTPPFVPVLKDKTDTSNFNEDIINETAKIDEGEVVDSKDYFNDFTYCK

[2] = target: B1; assay: BLI

Row | Binder | Kd [1] | Kd [2]
1 | B1 | 32 µM | –
2 | IYKSKITTETVTQKD [EhPHDK Peptide 2 (hinge region, IQ motif-like sequence)] | – | 243 µM
